Experimental data: the supplement of paper PMC12636428

System: Saccharomyces cerevisiae
Experiment: transcriptional activation domain activity (GFP:mCherry ratio, weighted mean of sorted bins, harmonized to initial dataset scale) (arbitrary fluorescence ratio units); higher = stronger transcriptional activation
Details: beta-estradiol 1 µM; induction time 4 h
Summary of the method: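 Barcoded protein tiles fused to an estradiol-inducible synthetic transcription factor were integrated at the yeast URA3 locus, in diploids carrying a GFP reporter. Cultures were diluted 1:5 into SC with 1 uM beta-estradiol, held 4 hours at 30 °C, sorted into 8 bins by GFP:mCherry ratio, and barcodes sequenced. Tiles under 50 reads were discarded. Activation activity is the read-weighted mean of bin median fluorescence, averaged across barcodes, then linearly mapped onto the initial dataset scale.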

Row | Sequence | transcriptional activation domain activity
1 | MIRFPCLLLYIFAMVYLGVLFFSFFDSCFFFFLHLLGAGWVVHFFLDIFFFYI | 70600
2 | MYELAFFFFFFLFRLFLSLFRGGCFWVQIFVFIPEYLVYSILFSFFFLLLFTF | 47500
3 | MLQQVPRVCIISIFWNISALWAAKRFEPMVSAYSLLSNVPYVLRLVCSWQPTE | 32200
4 | MTVIRFLKMIGPFFFLLLSFLLFPFFFFFIPFKMTLLSFLLLFPLFILHSVHC | 47500
5 | FAALRRGLLLIMLFALWDVRLLSELSFTNFVFPPAMFRVIAAQSPSLRAVKVS | 45300
6 | LLHILCFLMNLILTTLTLFVLLRDHLQLSCNVYTGLFFSCHTVSVAFSGVILL | 66200
7 | LSHFLAGLHHSVLLAYFLYFFVLPFSLLCYSIFLLYFSFGLDGIILLFYYFIF | 37100
8 | SAGYYSRVSFFFFSNYHLIILHVFFFFFFFVYWVYFSSSDFFFLLGLTIFCFF | 57900
9 | FVLYFFFFFFLFFFFASGLVFFIRLFFFCAVFSASPYSCCCYYFNCAYPIYVL | 55700
10 | ADALSARSPKKGKKGKKGKKGKKGKKGKKAGAAAAAAGGAAGANGAKAAGAKA | 33300
11 | GSTPGKTASTGRGTAGGKGVAAGSKAPASTRGGGGGTAGGGGKAGGANTKTAV | 56000
12 | EPHNDIILDLLFTLAYWHALAKLRLHTDFTLSKLEEVTMFLGRQLRYLRRVTC | 51800
13 | AAEEAAVADGECPSKKKRQAELSKQISAKWKGLSPEDRRYWDTLAKEKKREHE | 19500
14 | TLSGVLMLFWQPNGQRLIGNATLWCWIRPGLEFYRIVLNYGWIWIILGVNICT | 73100
15 | LTEVTSPRFIASIIACLCNHFAWFFYFIDPHHYHALFTPVEICLFFLVVVWFV | 52100
16 | VLAGYVVHVFGGDYFHSFSMTFFTFIWTLLFMGYIFITRDYIPKCYFYWLHIA | 54600
17 | PLLLKGLQFTMAEEKTWSLLRQIMLLDNLPLIDPAPTRFMYLLLGAIPRLLNG | 49700
18 | LLGVGYAMVLAWFMCLFYLFPFLGALTLYFVMDVVDLASRTLYKLLHTLPILV | 52500
19 | DNAQANAGGARGRRDDGAGTSKEDGEEEGAYEGDSEEDKKKRRKGRSKRRGGD | 48100
20 | DAAAAAAAKKKKQQQQQQQEKEEEAKKEKASSASSASRASSISAHKASVSAAK | 19700
21 | PAAAAQAPPAAGGKKEEAAAAEVPQAEAAAEGAGSPEGEGKDAQAEAAAPAEG | 16800

Row | Sequence | transcriptional activation domain activity
22 | YLVRHRGEIFDNFQARKEQLLCPVYIRWLRLIWQILLSCCHVIFKSHPWMVFM | 57700
23 | KVDNGGKVDNSGKVDNGRKVDSRKIDDGRKVDDGRNVDNRGRVDEGGGVVKGG | 19500
24 | IQTYEIVGLTSCSLNVVLLPFAFYLVTLCFKTSERSPLLSMLCRLFFLPLTCG | 45100
25 | MAPAPAPVAAPPAPETREAPPASPRGRSRSRSRSPAFRRPSPPAPRRPVGAPA | 29100
26 | MSEPPRKRAKLACVTCNARRVKCDVTDRHPCSNCAAGNVECETRESRRGKHIR | 24000
27 | GHFVRVGTTFFTMYAVNIFLSYARYIAAHFRISVIVISRLMLNLRNPVTFEST | 60400
28 | AWAVQTKVYLNYLWHTTNKFTTGFKVIYIQCHPDFVTWEQMKIMAMFLCCLCF | 55800
29 | KFVDLGIFKAEGTRLRCRMCGFLIASLVLCMHMSQACPMYPRYPSSNMHEHPD | 29300
30 | KLLNYLQMDRAKVVSFTIFVFVWSYFRHYLNLVILWSVWTQYDLIPQFARRWV | 40000
31 | AVGRGEFAQPVLVPGGGVAIVAIGRARWIRDEEKNGERRYRVGVSWSADHRVV | 40100
32 | GKRNSGAGGASAKAKARGAGKKPAAAGGKAGKKNVRAAKSKGKAAGARTKPAA | 43900
33 | MSTSSIVMCSLFLIVRTSTFLLTFIFPNSLPLMGYRLRVFFVWYVDFYGWIFT | 57600
34 | WLLSVYILGFLAFELASVLIAIRVVAIWRRARPVLVFVVVALLTQFSFIIYLS | 23300
35 | AVLEFYEQSTRLVASDALGRHVRIELPPRLLVYVVFFSPSVAVVSRLCSLLAC | 35600
36 | SNYCWQMSVLPRARISIFRAEVKERCVVTVALLFSVYDPIAIVDLVKKLETDF | 27500
37 | MAGVGYYDLKQLMMVFLLVWLLAICVGPWYQGCFSPSFLLFCFYQPYIFISFL | 52900
38 | VSFRLLVYALVSHVIFGIVLLIDCFYAFPGWHCSLLAFLINFNILFSASIFFC | 55200
39 | AGDKPEKSKKDKKKEKEEKKKAAVAAEKEKQEKGDEAVAAAPSPVAAATPSLL | 29900
40 | MWCTRWFLPLLLLPLPTAPPYFLLLFLFSLTMHAKPCFYCIVLLTTLFVSSCY | 47800
41 | AFLLFLIYLTFFCWVCFATSATWVWTEILSDNQYTESFMPINDVLLAVLSGII | 47600
42 | MLLLFVYPCSPLSHCSSFYSYYLIIKLLLFYDIKNLSFFFFLEYFDLWWLITI | 78500

Row | Sequence | transcriptional activation domain activity
43 | LLLLLVYSNVALLVYHAPTYTRPFDMALIHAPLRFFMILPLSLLFPYSLFITL | 57700
44 | GVDERRAIVESFVKRVTHKYLRHCDPSEPVLLLSSLVIKLIFARFWLLVYRPQ | 44900
45 | RGYDIAKVSNSADLVSWVIAWLLCNNPHIVFIHFGFSYDILVLAAHALHILDC | 38500
46 | METSASARSPPPSTRQPSAPRRVRAALACQRCKGRKQKCEGGQPSCRSCIKAG | 60700
47 | MFFRRFLMYFVELTGIMYCLIVFFMVSLFLLYRRNMIEEQFPNKTIILYGKRV | 58500
48 | MSTGVSSFLQYVFLFTPYFIFSYFLAVDCWCFSLPLFCLAIPSIFLFLFLFLL | 24900
49 | FKSQLFCFYNLRLFVSCQPKHLNDLVDLLKKYHGSHVYQFVFTLSAFLERVAQ | 48800
50 | MLLLLYLILYLMMMLFAVCALISIYLCIYTLPLLSFPFFLALFYFILFLYVYL | 45200
51 | MGRVGGLFIMEGCLCVYRLLLYPSSCVWVSDTRGWLWLWWLWWWVVVVVWGVC | 44600
52 | LFLAGILRWGSRIVLVLFLLLLFRLSLLFCLGHLFFAYSLSTLGILLLLMIFF | 31600
53 | LIWSCKLIWAAYLDMYRYHIYVLVSFEVVALLTWILTLLYGVPNLINLVYHAY | 56300
54 | NSLRNLFDLVGCSSLCSSSQKRGFVGRLVVDFASCAWPPVIVILLIWISLFWW | 39200
55 | GLVSLDRLLVNRFGEALLSMGRAPTWSWKRALRAVLLSLVELSARCEFKLGSN | 48400
56 | AAAAAAAAAAAAAAAAAAAAAAAAAAAQQRRRQQQQQRRGSSAAARRQQQQQR | 22600
57 | MSVLYIEDTFPSCFIKFKELVVCSRLCMMFPFQYQFASLLLYLILLLAYHLFL | 54300
58 | PLLRVLQICSFKDLMFDVPHLHRFISNAELLRTLNHLDVSFSSYSVFLQLVGF | 70500
59 | MRTLLMCHANRGIGFFWSGVFLWKVNILAGNGGYSSMCAYVNWLRLTWFSFVA | 40900
60 | RAMYAPGFVELTLSYGTGGVTLYARYRSMIDALLKRPHATAFIFAGGYLSWLA | 52600
61 | ESASAAEEPAAKSKRGKKSQAEPEEEELSAVDEEHEPAPKSKRSKKSKAAVET | 13800
